Experimental data from patent US20260139001A1.

Target: SARS-CoV-2 Spike RBD, B.1.1.529/Omicron (SARS-CoV-2 Omicron B.1.1.529) (UniProt P0DTC2)

Question: “Ribosomally constructed Wuhan-NS (VHH72 V104UAG construct translated with NBDxK-tRNACUA)” was tested. Which normalized tube fluorescence did it give?
Answer: 0.09
